Patent publication US20240400614A1, “CLEAVABLE PEPTIDES AND METHODS OF USE THEREOF” (Bright Peak Therapeutics AG, priority 2023, published 2024)
Square brackets hold non-standard residues; d marks the D form. Ends that are not written are not given here. Tyr(3-NO2) = N[C@@H](Cc1ccc(O)c([N+](=O)[O-])c1)C(=O)O; Nle = CCCC[C@H](N)C(=O)O; 2Abz = Nc1ccccc1C(=O)O

How the values were obtained:
Assay type in all cases: biochemical
uPA = uPA (Homo sapiens, UniProt P00749); test: FRET peptide cleavage efficiency with uPA
matriptase = molecular target: T1, matriptase (Homo sapiens, UniProt Q9Y5Y6); test: FRET peptide cleavage efficiency with matriptase
T1 construct: purchased R&D Systems 3946-SEB
T1 sequence (Q9Y5Y6 615-855 limits assumed): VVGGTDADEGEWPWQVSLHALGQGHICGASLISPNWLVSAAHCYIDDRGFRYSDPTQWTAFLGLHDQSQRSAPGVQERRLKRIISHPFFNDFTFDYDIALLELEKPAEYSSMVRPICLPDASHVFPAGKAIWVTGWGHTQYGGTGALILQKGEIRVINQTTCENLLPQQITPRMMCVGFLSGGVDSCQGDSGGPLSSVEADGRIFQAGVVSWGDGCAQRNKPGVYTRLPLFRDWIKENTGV

MMP-7 = molecular target: T2, MMP-7 (Homo sapiens, UniProt P09237); test: FRET peptide cleavage efficiency with MMP-7 (standard pH 7.5; also pH 6.5)
T2 construct: purchased SIGMA CC1059
T2 sequence (P09237 95-267): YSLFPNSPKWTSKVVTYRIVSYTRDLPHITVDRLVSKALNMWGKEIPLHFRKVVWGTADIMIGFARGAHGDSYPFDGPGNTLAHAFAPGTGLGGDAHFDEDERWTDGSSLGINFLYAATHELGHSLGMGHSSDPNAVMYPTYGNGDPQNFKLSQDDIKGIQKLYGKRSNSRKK

MMP-9 = molecular target: T3, MMP-9 (Homo sapiens, UniProt P14780); test: FRET peptide cleavage efficiency with MMP-9 (standard pH 7.5; also pH 6.5)
T3 construct: purchased SIGMA PF024

MMP-2 = molecular target: T4, MMP-2 (Homo sapiens, UniProt P08253); test: FRET peptide cleavage efficiency with MMP-2
T4 construct: purchased SIGMA PF023
T4 sequence (P08253 110-660): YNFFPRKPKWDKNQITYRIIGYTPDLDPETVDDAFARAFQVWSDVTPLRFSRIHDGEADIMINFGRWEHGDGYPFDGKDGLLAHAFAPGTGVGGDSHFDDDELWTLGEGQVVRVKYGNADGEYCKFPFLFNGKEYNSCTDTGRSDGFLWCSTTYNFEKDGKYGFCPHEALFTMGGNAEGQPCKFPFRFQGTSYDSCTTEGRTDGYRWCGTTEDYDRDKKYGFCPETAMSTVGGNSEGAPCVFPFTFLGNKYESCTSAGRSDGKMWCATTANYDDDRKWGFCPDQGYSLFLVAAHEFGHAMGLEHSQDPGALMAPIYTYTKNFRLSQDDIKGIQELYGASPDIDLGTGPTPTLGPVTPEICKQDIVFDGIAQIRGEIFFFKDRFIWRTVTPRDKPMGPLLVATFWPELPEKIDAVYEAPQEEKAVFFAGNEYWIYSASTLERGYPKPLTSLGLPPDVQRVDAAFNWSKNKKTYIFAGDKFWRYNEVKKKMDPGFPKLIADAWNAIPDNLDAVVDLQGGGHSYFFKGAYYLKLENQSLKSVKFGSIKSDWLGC

[1] = 200 uM linker, 1 ug/ml protease, 37° C., buffer A pH 8.5
[2] = t = 60 min, 200 uM linker, 1 ug/ml protease, 37° C., buffer A pH 8.5
[3] = t = 120 min, 200 uM linker, 1 ug/ml protease, 37° C., buffer A pH 8.5
[4] = t = 15 min, 200 uM linker, 1 ug/ml protease, 37° C., buffer B pH 9.0
[5] = t = 60 min, 200 uM linker, 1 ug/ml protease, 37° C., buffer B pH 9.0
[6] = 200 uM linker, 1 ug/ml protease, 37° C., buffer B pH 9.0
[7] = t = 15 min, 200 uM linker, 1 ug/ml protease, 37° C., buffer C pH 7.5
[8] = t = 60 min, 200 uM linker, 1 ug/ml protease, 37° C., buffer C pH 7.5
[9] = t = 120 min, 200 uM linker, 1 ug/ml protease, 37° C., buffer C pH 7.5
[10] = t = 60 min, standard conditions (Table 8)
[11] = t = 120 min, standard conditions (Table 8)
[12] = t = 15 min, standard conditions (Table 8)

T3 sequence (P14780 94-707): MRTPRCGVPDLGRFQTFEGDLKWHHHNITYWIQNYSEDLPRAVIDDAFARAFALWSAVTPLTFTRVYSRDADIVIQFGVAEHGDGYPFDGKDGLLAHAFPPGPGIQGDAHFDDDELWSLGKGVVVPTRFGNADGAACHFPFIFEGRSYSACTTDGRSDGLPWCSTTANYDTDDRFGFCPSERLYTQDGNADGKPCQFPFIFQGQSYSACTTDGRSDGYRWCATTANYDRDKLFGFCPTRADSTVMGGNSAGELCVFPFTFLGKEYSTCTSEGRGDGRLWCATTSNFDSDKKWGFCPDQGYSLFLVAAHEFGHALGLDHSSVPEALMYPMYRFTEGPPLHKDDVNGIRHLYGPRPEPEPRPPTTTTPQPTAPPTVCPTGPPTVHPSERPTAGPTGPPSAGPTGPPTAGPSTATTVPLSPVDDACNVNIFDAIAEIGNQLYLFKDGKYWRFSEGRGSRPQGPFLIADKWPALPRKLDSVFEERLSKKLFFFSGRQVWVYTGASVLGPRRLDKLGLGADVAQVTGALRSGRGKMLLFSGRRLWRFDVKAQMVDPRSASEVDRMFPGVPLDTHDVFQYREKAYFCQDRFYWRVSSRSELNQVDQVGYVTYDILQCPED

Substance | % cleavage uPA t = 15 min (uPA; [1]) [%] | % cleavage uPA t = 60 min (uPA; [2]) [%] | % cleavage uPA t = 120 min (uPA; [3]) [%] | % cleavage Matriptase t = 15 min (matriptase; [4]) [%] | % cleavage Matriptase t = 60 min (matriptase; [5]) [%] | % cleavage Matriptase t = 120 min (matriptase; [6]) [%] | % cleavage MMP-7 t = 15 min (MMP-7; t = 15 min (Table 9)) [%] | % cleavage MMP-7 t = 60 min (MMP-7; t = 60 min (Table 9)) [%] | % cleavage MMP-7 t = 120 min (MMP-7; t = 120 min (Table 9)) [%] | % cleavage MMP-9 t = 15 min (MMP-9; t = 15 min (Table 9)) [%] | % cleavage MMP-9 t = 60 min (MMP-9; t = 60 min (Table 9)) [%] | % cleavage MMP-9 t = 120 min (MMP-9; t = 120 min (Table 9)) [%] | % cleavage MMP-2 t = 15 min (MMP-2; t = 15 min (Table 9)) [%] | % cleavage MMP-2 t = 15 min (MMP-2; [7]) [%] | % cleavage MMP-2 t = 60 min (MMP-2; t = 60 min (Table 9)) [%] | % cleavage MMP-2 t = 60 min (MMP-2; [8]) [%] | % cleavage MMP-2 t = 120 min (MMP-2; t = 120 min (Table 9)) [%] | % cleavage MMP-2 t = 120 min (MMP-2; [9]) [%] | also measured
SGRPLGYFGKL ([2Abz]SGRPLGYFGKL[Tyr(3-NO2)]-NH2) [LNK056] | 0 | 0 | 0 | 0 | 0 | 0 | 0 | 0 | 0 | 32 | 100 | 100 | 75 | 75 | 100 | 100 | 100 | 100 | –
SGRVAGLVG ([2Abz]SGRVAGLVG[Tyr(3-NO2)]-NH2) [LNK016] | 2 | 6 | 12 | 22 | 70 | 92 | 11 | 43 | 70 | 10 | 43 | 67 | 72 | 85 | 100 | 99 | 100 | 99 | % cleavage uPA t = 60 min (uPA; pH 6.5, t = 60 min (Table 7)): 0%; % cleavage uPA t = 120 min (uPA; pH 6.5, t = 120 min (Table 7)): 0%; % cleavage uPA t = 60 min (uPA; pH 7.5, t = 60 min (Table 7)): 4%; % cleavage uPA t = 120 min (uPA; pH 7.5, t = 120 min (Table 7)): 10%; % cleavage Matriptase t = 15 min (matriptase; pH 6.5, t = 15 min (Table 7)): 8%; % cleavage Matriptase t = 60 min (matriptase; pH 6.5, t = 60 min (Table 7)): 24%; % cleavage Matriptase t = 15 min (matriptase; pH 7.5, t = 15 min (Table 7)): 17%; % cleavage Matriptase t = 60 min (matriptase; pH 7.5, t = 60 min (Table 7)): 54%; % cleavage MMP-2 t = 15 min (MMP-2; pH 6.5, t = 15 min (Table 7)): 84%; % cleavage MMP-2 t = 60 min (MMP-2; pH 6.5, t = 60 min (Table 7)): 100%; % cleavage MMP-2 t = 15 min (MMP-2; pH 7.5, t = 15 min (Table 7)): 87%; % cleavage MMP-2 t = 60 min (MMP-2; pH 7.5, t = 60 min (Table 7)): 100%
SGRVANPLGGSG ([2Abz]SGRVANPLGGSG[Tyr(3-NO2)]-NH2) [LNK053] | 1 | 5 | 12 | 3 | 11 | 20 | 0 | 0 | 0 | 1 | 3 | 4 | 2 | 2 | 5 | 5 | 8 | 8 | –
SGRVANYFGKL ([2Abz]SGRVANYFGKL[Tyr(3-NO2)]-NH2) [LNK054] | 33 | 100 | 100 | 0 | 0 | 0 | 0 | 0 | 0 | 49 | 100 | 100 | 78 | 78 | 100 | 100 | 100 | 100 | –

More lines, main results first:

% cleavage uPA t = 15 min (uPA; [1]) [%] | % cleavage uPA t = 60 min (uPA; [2]) [%] | % cleavage uPA t = 120 min (uPA; [3]) [%] | % cleavage Matriptase t = 15 min (matriptase; [4]) [%] | % cleavage Matriptase t = 60 min (matriptase; [5]) [%] | % cleavage Matriptase t = 120 min (matriptase; [6]) [%] | % cleavage MMP-7 t = 15 min (MMP-7; t = 15 min (Table 9)) [%] | % cleavage MMP-7 t = 60 min (MMP-7; t = 60 min (Table 9)) [%] | % cleavage MMP-7 t = 120 min (MMP-7; t = 120 min (Table 9)) [%] | % cleavage MMP-9 t = 15 min (MMP-9; t = 15 min (Table 9)) [%] | % cleavage MMP-9 t = 60 min (MMP-9; t = 60 min (Table 9)) [%] | % cleavage MMP-9 t = 120 min (MMP-9; t = 120 min (Table 9)) [%] | % cleavage MMP-2 t = 15 min (MMP-2; t = 15 min (Table 9)) [%] | % cleavage MMP-2 t = 15 min (MMP-2; [7]) [%] | % cleavage MMP-2 t = 60 min (MMP-2; t = 60 min (Table 9)) [%] | % cleavage MMP-2 t = 60 min (MMP-2; [8]) [%] | % cleavage MMP-2 t = 120 min (MMP-2; t = 120 min (Table 9)) [%] | % cleavage MMP-2 t = 120 min (MMP-2; [9]) [%] | Substance | also measured
1 | 6 | 12 | 29 | 81 | 96 | 62 | 96 | 100 | 43 | 94 | 100 | 89 | 90 | 97 | 99 | 100 | 99 | SGRVANLVG (not fully specified (N-terminus, C-terminus)) [LNK017] | % cleavage uPA t = 60 min (uPA; pH 6.5, t = 60 min (Table 7)): 0%; % cleavage uPA t = 120 min (uPA; pH 6.5, t = 120 min (Table 7)): 0%; % cleavage uPA t = 60 min (uPA; pH 7.5, t = 60 min (Table 7)): 7%; % cleavage uPA t = 120 min (uPA; pH 7.5, t = 120 min (Table 7)): 13%; % cleavage Matriptase t = 15 min (matriptase; pH 6.5, t = 15 min (Table 7)): 5%; % cleavage Matriptase t = 60 min (matriptase; pH 6.5, t = 60 min (Table 7)): 26%; % cleavage Matriptase t = 15 min (matriptase; pH 7.5, t = 15 min (Table 7)): 25%; % cleavage Matriptase t = 60 min (matriptase; pH 7.5, t = 60 min (Table 7)): 68%; % cleavage MMP-2 t = 15 min (MMP-2; pH 6.5, t = 15 min (Table 7)): 93%; % cleavage MMP-2 t = 60 min (MMP-2; pH 6.5, t = 60 min (Table 7)): 100%; % cleavage MMP-2 t = 15 min (MMP-2; pH 7.5, t = 15 min (Table 7)): 37%; % cleavage MMP-2 t = 60 min (MMP-2; pH 7.5, t = 60 min (Table 7)): 100%
– | – | – | – | – | – | 77 | 100 | 100 | 23 | 74 | 92 | 19 | – | 64 | – | 88 | – | SGRVAPQPLVD (not fully specified (N-terminus, C-terminus)) [LNK046] | % vcleavage uPA t = 15 min (uPA; standard conditions (Table 8)): 1%; % cleavage uPA t = 60 min (uPA; [10]): 4%; % cleavage uPA t = 120 min (uPA; [11]): 7%; % cleavage Matriptase t = 15 min (matriptase; [12]): 19%; % cleavage Matriptase t = 60 min (matriptase; [10]): 65%; % cleavage Matriptase t = 120 min (matriptase; standard conditions (Table 8)): 91%; % cleavage MMP-7 t = 15 min (MMP-7; [12]): 77%; % cleavage MMP-7 t = 60 min (MMP-7; [10]): 100%; % cleavage MMP-7 t = 120 min (MMP-7; [11]): 100%; % cleavage MMP-9 t = 15 min (MMP-9; [12]): 23%; % cleavage MMP-9 t = 60 min (MMP-9; [10]): 74%; % cleavage MMP-9 t = 120 min (MMP-9; [11]): 92%; % cleavage MMP-2 t = 60 min (MMP-2; [10]): 64%; % cleavage MMP-2 t = 120 min (MMP-2; [11]): 88%
– | – | – | – | – | – | 61 | 100 | 100 | 32 | 93 | 100 | 34 | – | 78 | – | 91 | – | SGRVAPY-Nle-LQG ([2Abz]SGRVAPY[Nle]LQG[Tyr(3-NO2)]-NH2) [LNK043] | % vcleavage uPA t = 15 min (uPA; standard conditions (Table 8)): 0%; % cleavage uPA t = 60 min (uPA; [10]): 0%; % cleavage uPA t = 120 min (uPA; [11]): 0%; % cleavage Matriptase t = 15 min (matriptase; [12]): 24%; % cleavage Matriptase t = 60 min (matriptase; [10]): 73%; % cleavage Matriptase t = 120 min (matriptase; standard conditions (Table 8)): 100%; % cleavage MMP-7 t = 15 min (MMP-7; [12]): 61%; % cleavage MMP-7 t = 60 min (MMP-7; [10]): 100%; % cleavage MMP-7 t = 120 min (MMP-7; [11]): 100%; % cleavage MMP-9 t = 15 min (MMP-9; [12]): 32%; % cleavage MMP-9 t = 60 min (MMP-9; [10]): 93%; % cleavage MMP-9 t = 120 min (MMP-9; [11]): 100%; % cleavage MMP-2 t = 60 min (MMP-2; [10]): 78%; % cleavage MMP-2 t = 120 min (MMP-2; [11]): 91%
